These results are taken from publication PMC6992696, “Supramolecular tholos-like architecture constituted by archaeal proteins without functional annotation” (Scientific Reports, 2020).

The labels stand for the following.
B3: PbaA (PF0015) from Pyrococcus furiosus, full-length (natural protein, UniProt Q8U4Q9 1-242, looked up)
chain: MEEKKPVNLVLPEVENAIFIEGYPGVGLVGHIAANFLAKELDMDLIGYVDSLFIPPMSLILEGRPTPPLRFYGKNNIIIAIADIFLPPTLVNEIAKEIVNYLKKVNAEKVISLAGMGIGFFKDTFEVWGIGGSEEENKELESLGVKILKYGSITGMSGKLLWEASRAGLKSYVLLGETFGDRPDPRAAANVVEVLNKMLGLNVSVEPLLKEAEMIEEQLRRMHEQMEEARRKMERQYETMYL
notes: PbaA (PF0015), Pyrococcus furiosus, full-length; cloned from P. furiosus genomic DNA; Homopentameric ring when isolated; two pentameric rings in the 10:10 complex with PF0014; also called full-length PbaA; PbaA pentamer

Data set [1] concerns the target PbaA_(CΔ30), mutant PbaA with deletion of 30 C-terminal amino acid residues (Pyrococcus furiosus). Put plainly: SEC + other: negative stain EM; PbaA_(CΔ30) alone, in the absence of PF0014.
Data set [2] shares this target. Nature of the data set: cryo-EM structure; purified PbaA_(CΔ30)/PF0014 complex; map EMD-0755 at 7.3 Å with D5 symmetry and 8.5 Å with C1 symmetry.
The target in data set [3] is B3. Put plainly: native MS; purified PbaA/PF0014 complex (20 μM) exchanged into 150 mM ammonium acetate pH 9.0, 2-fold diluted, nanoflow ESI, SYNAPT G2-Si. The following applies: both partners purified.
Data set [4] deals with the molecule itself. Put plainly: cryo-EM structure; hexahistidine-tagged PbaA/Trx-PF0014 complex treated with excess anti-histidine-tag monoclonal antibody for 2 h at 4 °C; map at 14 Å, C1 symmetry.
Data set [5] concerns the molecule itself. Put plainly: HS-AFM; isolated proteins, top views on APTES-mica, tapping mode, room temperature.

As to “PbaA_(CΔ30), mutant PbaA with deletion of 30 C-terminal amino acid residues (domain or fragment)”, the results for the stoichiometry N in data set [1] and in data set [2] were 14 protomers and 5 protomers, respectively.

B1: PF0014 from Pyrococcus furiosus (natural protein, UniProt Q8U4R0 1-128, looked up)
chain: MVVEIPLLSGIARRTLDALMRNPIRTVEIRNARNYMTLEKVKEGDLVFLTYESLEDVMRGTEGIIAMVTRMEKSHQRVPWEESDEREISICRVQLKLVGLGRVVEVQEKNGVVFVKVREMLHHEISMG
notes: PF0014, Pyrococcus furiosus, an archaeal protein without functional annotation; Monomeric by HS-AFM when isolated; ten copies in the complex with PbaA
As for B1, the “stoichiometry N” value in data set [3] was 1 PF0014 per PbaA (10:10).

B2: N-terminally hexahistidine-tagged PbaA (natural protein, Pyrococcus furiosus)
chain: MEEKKPVNLVLPEVENAIFIEGYPGVGLVGHIAANFLAKELDMDLIGYVDSLFIPPMSLILEGRPTPPLRFYGKNNIIIAIADIFLPPTLVNEIAKEIVNYLKKVNAEKVISLAGMGIGFFKDTFEVWGIGGSEEENKELESLGVKILKYGSITGMSGKLLWEASRAGLKSYVLLGETFGDRPDPRAAANVVEVLNKMLGLNVSVEPLLKEAEMIEEQLRRMHEQMEEARRKMERQYETMYL
notes: PbaA (PF0015), Pyrococcus furiosus; The His tag was labelled with a monoclonal anti-histidine-tag antibody (R&D Systems) in the cryo-EM sample; the antibody is only a tool; May be the same preparation as m1 if the tag was never removed there; not shown: His6, N-terminal, kept
Turning to B2, the “stoichiometry N” value in data set [4] was found to be 5 protomers.
Consider B3, for which, in data set [5], the “stoichiometry N” value worked out at 5 protomers.
